Test results from patent US20260049105A1, “SELECTIVE MC4R LIGAND FOR TREATING OBESITY AND COGNITIVE LOSS” (ARIZONA BOARD OF REGENTS ON BEHALF OF THE UNIVERSITY OF …, priority 2022, published 2026).

Biological target: human melanocortin 4 receptor (human), P32245
Test: competition with 125I-NDP-α-MSH on whole HEK293 cells expressing hMC4R
Conditions: remark: other sources report otherwise

human melanocortin 4 receptor (human), P32245, sequence (P32245 whole entry): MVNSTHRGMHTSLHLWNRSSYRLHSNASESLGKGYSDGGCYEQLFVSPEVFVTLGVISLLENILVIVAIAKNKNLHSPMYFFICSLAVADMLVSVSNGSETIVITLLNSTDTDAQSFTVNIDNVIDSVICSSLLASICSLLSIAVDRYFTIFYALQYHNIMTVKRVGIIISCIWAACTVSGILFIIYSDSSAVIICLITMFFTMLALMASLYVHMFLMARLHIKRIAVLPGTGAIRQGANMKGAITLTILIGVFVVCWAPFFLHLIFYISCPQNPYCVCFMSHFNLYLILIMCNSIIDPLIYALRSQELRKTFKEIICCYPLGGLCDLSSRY

B1: Ac-Arg-cyclo[Asp-Pip-D-Phe(4-F)-βArg-Trp-Lys]-NH2 (peptide)
peptide: RDXFRWK
modifications: not fully specified; here or on the partner: N-terminal acetyl (Ac); C-terminal amide (NH2); cyclized through the side chains of Asp2 and Lys7; Pip at 3; D-Phe(4-F) at 4; βArg at 5
  BE% (percent [125I]NDP-α-MSH displacement at 10 µM): 23%
